This note sets out measurements from US20100254975A1 (Amgen, published 2010).

The target of assay [1] is T1, human alpha4beta7 (human, UniProt P13612 34-1032; P26010 20-798). The assay is described as follows: FACS on transfected 293 cells, 1 microG/ml, PE anti-human IgG; control.
Assay [2] deals with a4b7(R213S) (human) (UniProt P13612). The assay is described as above.
The target in assay [3] is a4(V824A)b7 (human) (UniProt P13612). Described as above.
Assay [4] has as its target a4b7(E97V) (human) (UniProt P13612). The assay is described as above.
The target in assay [5] is a4(Q878R)b7 (human) (UniProt P13612). The description is as above.
Chain of a4(Q878R)b7 (human) (P13612 34-1032, chain 1 of 2): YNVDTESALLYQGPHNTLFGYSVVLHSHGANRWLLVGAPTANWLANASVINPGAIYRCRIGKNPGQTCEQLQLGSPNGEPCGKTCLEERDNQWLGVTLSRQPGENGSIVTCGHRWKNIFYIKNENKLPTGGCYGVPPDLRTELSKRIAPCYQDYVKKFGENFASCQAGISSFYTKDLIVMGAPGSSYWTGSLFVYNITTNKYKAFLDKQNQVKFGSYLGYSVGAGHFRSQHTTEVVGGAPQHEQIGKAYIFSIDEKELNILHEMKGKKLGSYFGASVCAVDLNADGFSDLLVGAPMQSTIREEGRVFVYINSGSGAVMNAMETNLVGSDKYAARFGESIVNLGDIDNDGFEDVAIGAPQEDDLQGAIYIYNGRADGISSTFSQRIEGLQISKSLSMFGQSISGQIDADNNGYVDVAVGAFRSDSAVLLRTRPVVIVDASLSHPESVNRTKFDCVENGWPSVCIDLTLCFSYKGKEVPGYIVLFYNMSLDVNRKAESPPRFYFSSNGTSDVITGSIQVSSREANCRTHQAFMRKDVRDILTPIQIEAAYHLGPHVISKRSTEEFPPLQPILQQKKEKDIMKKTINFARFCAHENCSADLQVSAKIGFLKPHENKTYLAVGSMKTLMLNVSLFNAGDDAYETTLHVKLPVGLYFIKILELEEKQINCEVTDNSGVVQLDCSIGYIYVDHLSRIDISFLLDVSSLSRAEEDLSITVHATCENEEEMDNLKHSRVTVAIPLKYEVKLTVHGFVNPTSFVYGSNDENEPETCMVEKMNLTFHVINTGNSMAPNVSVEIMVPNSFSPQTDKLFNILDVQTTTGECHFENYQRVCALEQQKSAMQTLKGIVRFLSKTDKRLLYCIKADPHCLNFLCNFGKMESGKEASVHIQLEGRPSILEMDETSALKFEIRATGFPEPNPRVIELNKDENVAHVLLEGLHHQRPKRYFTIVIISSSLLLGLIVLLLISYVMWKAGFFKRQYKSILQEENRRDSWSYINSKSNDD
Chain of a4(Q878R)b7 (human) (P26010 20-798, chain 2 of 2, further chain): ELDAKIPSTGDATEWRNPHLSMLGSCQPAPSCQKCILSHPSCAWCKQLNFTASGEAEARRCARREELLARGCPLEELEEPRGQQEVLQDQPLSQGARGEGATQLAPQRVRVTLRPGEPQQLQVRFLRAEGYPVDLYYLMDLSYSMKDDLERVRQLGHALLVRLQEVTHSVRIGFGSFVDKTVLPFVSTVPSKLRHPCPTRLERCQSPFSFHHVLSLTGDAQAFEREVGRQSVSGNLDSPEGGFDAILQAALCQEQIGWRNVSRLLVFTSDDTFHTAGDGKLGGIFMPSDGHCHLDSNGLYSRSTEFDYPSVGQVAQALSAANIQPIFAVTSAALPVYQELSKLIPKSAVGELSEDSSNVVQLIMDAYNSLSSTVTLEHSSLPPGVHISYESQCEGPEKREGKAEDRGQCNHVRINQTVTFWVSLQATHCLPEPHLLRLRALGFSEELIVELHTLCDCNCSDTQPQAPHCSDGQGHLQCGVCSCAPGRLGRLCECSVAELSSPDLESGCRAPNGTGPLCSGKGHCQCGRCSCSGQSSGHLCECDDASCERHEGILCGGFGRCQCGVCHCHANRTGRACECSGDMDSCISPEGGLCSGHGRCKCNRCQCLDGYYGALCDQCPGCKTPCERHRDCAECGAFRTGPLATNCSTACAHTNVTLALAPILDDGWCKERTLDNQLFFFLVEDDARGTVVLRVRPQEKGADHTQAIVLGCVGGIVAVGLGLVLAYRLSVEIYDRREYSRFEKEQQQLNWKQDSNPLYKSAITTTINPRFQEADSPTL
Assay [6] deals with a4b7(G629S) (human) (UniProt P13612). The assay is described as above.
Chain of a4b7(G629S) (human) (P13612 34-1032, chain 1 of 2): as the sequence (P13612 34-1032, chain 1 of 2) above
Chain of a4b7(G629S) (human) (P26010 20-798 G629S, chain 2 of 2, further chain): as the sequence (P26010 20-798, chain 2 of 2, further chain) above, with G610S counted along it
The target in assay [7] is T1, human alpha4beta7. The assay is described as follows: FACS competition, blocks biotinylated MAdCAM-1-Fc binding to human CD4+CD45RA- memory T cells. How it is done: PBMC (fresh or frozen as described previously) are washed and resuspended in HEPES buffer (30 mM HEPES+[…]) with 1% BSA and 1 mM MnCl. to a final concentration of 10⁷cells/ml. Cells are blocked as described previously; after blocking, cells are incubated with a serial dilution of anti-alpha4beta7 antibody (or appropriate control) in 96 well plates for 30 minutes on ice, and then with 0.3 microG/ml biotinylated MAdCAM-1-Fc protein for another one hour.
After two washes in HEPES buffer with 1 mM MnCl, cells are treated with 1:100 dilution of streptavidin-PE, 4 microL CD3-Pacific Blue, CD4-PerCP-Cy5.5 and CD45RA-FITC as described previously, in a final volume of 100 microL. After one hour incubation on ice, cells are washed twice with HEPES buffer with 1 mM MnCl and then fixed in 200 microL buffer plus 0.5% paraformaldehyde. The percentage of positive MAdCAM-1-Fc binding CD4+CD45RA-memory T cells is determined by fluorescence activated cell sorter (FACS) analysis, as described previously.

For assay [8], the target named is T1, human alpha4beta7. The assay can be described thus: cell-based or functional assay.
Assay [9] addresses T1, human alpha4beta7. The assay can be described thus: KinExA, HUT78 cells expressing human alpha4beta7, n-curve analysis. The source says:
(§1) To measure cell binding affinity of human anti-alpha4beta7antibodies, a Kinetic Exclusion Assay which measures binding events in solution phase can be used to calculate the equilibrium dissociation constant, Kd. KinExA® Technology (Sapidyne Instruments, Boise, Id.) was used, substantially as described previously by Xie et. al. J. Imm, Methods 304:1 (2005) and Rathanaswami et. al. Anal. Biochem. 373:52 (2008). Briefly, HUT78 cells expressing human alpha4beta7 were titrated 1 in 3 from […] to ˜400 cells/mL and then equilibrated with a final concentration of either 2 or 30 pM of mAb 2F12 or 18A11 and 30 or 500 pM for 17C8 for 18 hours at 4° C. The free antibody remaining in the supernatant at equilibrium was measured by KinExA® technology by passing the supernatant over PMMA beads pre-coated with goat anti-human Fc and detected with goat anti-human (H+L) Cy5 (substantially as described by Rathanaswami et al. Biochem Biophys Research Commun:1004 (2005). The equilibrium dissociation constant (Kd) is obtained using KinExA® software by “n-curve analysis” which fits all of the given curves to a single Kdvalue simultaneously (Rathanswami et al. 2005 and Xie et al., supra).; results are shown below in Table 7.

The target of assay [10] is a4b7(R213S) (human) (UniProt P13612). The assay is described as follows: FACS on transfected 293 cells, 1 microG/ml, PE anti-human IgG.
Assay [11] concerns the target a4(V824A)b7 (human) (UniProt P13612). The assay is described as above.
In assay [12] the target is a4b7(E97V) (human) (UniProt P13612). Described as above.
Chain of a4b7(E97V) (human) (P13612 34-1032, chain 1 of 2): as the sequence (P13612 34-1032, chain 1 of 2) above
Chain of a4b7(E97V) (human) (P26010 20-798 E97V, chain 2 of 2, further chain): as the sequence (P26010 20-798, chain 2 of 2, further chain) above, with E78V counted along it
Assay [13] concerns the target a4(Q878R)b7 (human) (UniProt P13612). Described as above.
Assay [14] deals with a4b7(G629S) (human) (UniProt P13612). Described as above.
The target of assay [15] is T1, human alpha4beta7. The assay is described as follows: FACS, biotinylated antibody on human CD4+CD45RA- memory T cells. Here is the method:
Human peripheral blood mononuclear cells (PBMC; fresh or frozen and thawed, for example in phosphate buffered saline with 2% FBS) are washed and resuspended in HEPES buffer (30 mM HEPES+[…]) with 1% BSA, with or without 1 mM MnCl₂ (depending on the experiment; Mn²⁺ is necessary for MAdCAM-1 binding) and plated into 96 well plates (10⁶cells/well). Cells are incubated with 10 microG/ml human IgG for 30 minutes on ice to block nonspecific binding. Cells are then incubated with serial dilutions of biotinylated anti-alpha4beta7 antibodies in 96 well plates for one hour on ice, followed by addition of 1:100 dilution of streptavidin-phycoerythrin (PE; Jackson ImmunoResearch Laboratories Inc., West Grove, Pa.), 4 microL CD3-Pacific Blue, CD4-PerCP-Cy5.5 and CD45RA-fluorescein isothiocyanate (FITC) (BD Biosciences, San Jose Calif.) for a final volume of 100 microL, and incubated for another hour on ice. Cells were washed twice with HEPES buffer (with or without MnCl₂, correspondingly) and then fixed in 200 microL HEPES buffer plus 0.5% paraformaldehyde (again, with or without MnCl₂, correspondingly). The percentage of positive alpha4beta7 antibody binding CD4+CD45RA-memory T cells is determined using a fluorescence activated cell sorter (FACS), for example, a BD™ LSR II benchtop flow cytometer (BD Biosciences, San Jose Calif.).
(In general: Flow cytometry measures light scatter and fluorescence of single cells or particles in a stream.)

Assay [16] concerns the target T1, human alpha4beta7. The assay is described as follows: KinExA, HUT78 cells expressing human alpha4beta7, upper bound of Kd.
Excerpt: as §1
For orientation: Kinetic exclusion samples the free partner from a solution-phase mixture.

For assay [17], the target named is T1, human alpha4beta7. The assay can be described thus: FACS on transfected 293 cells, 1 microG/ml, PE anti-human IgG. The source says:
Point mutant constructs representing amino acid altering SNPs (a4b7(E97V); a4b7(R213S); a4b7(G629S; a4(V824A)b7; a4(Q878R)b7) in the extracellular domains of both alpha4 and beta7 were generated. Each point mutant construct was transfected to 293 cells along with the wild-type partner expression construct. Transfected 293 cells were first stained with 1 microG/ml of human IgG or anti-alpha4beta7 antibody, washed with PBS, and the stained with phycoerytherin conjugated secondary antibody goat-anti human IgG. After washing with PBS, cells were analyzed by fluorescence activated cell sorting, for example, with a FACSCalibur™ (BD Biosciences, San Jose Calif.).

Assay [18] addresses T1, human alpha4beta7. The assay is described as follows: KinExA, HUT78 cells expressing human alpha4beta7, lower bound of Kd.
Excerpt: as §1

Numbering of substitutions follows the chain as printed.

Chain of a4(V824A)b7 (human) (P13612 34-1032 V824A, chain 1 of 2): as the sequence (P13612 34-1032, chain 1 of 2) above, with V791A counted along it
Chain of a4(V824A)b7 (human) (P26010 20-798, chain 2 of 2, further chain): as the sequence (P26010 20-798, chain 2 of 2, further chain) above
T1 sequence (P13612 34-1032, chain 1 of 2): as the sequence (P13612 34-1032, chain 1 of 2) above
T1 sequence (P26010 20-798, chain 2 of 2): as the sequence (P26010 20-798, chain 2 of 2, further chain) above
Chain of a4b7(R213S) (human) (P13612 34-1032, chain 1 of 2): as the sequence (P13612 34-1032, chain 1 of 2) above
Chain of a4b7(R213S) (human) (P26010 20-798 R213S, chain 2 of 2, further chain): as the sequence (P26010 20-798, chain 2 of 2, further chain) above, with R194S counted along it

human IgG (antibody): the fluorescence staining intensity (geometric mean) amounted to 8 with human alpha4beta7 [1]; 7 with a4b7(R213S) (human) [2]; 7 in the assay with a4(V824A)b7 (human) [3]; 7 with a4b7(E97V) (human) [4]; 7 with a4(Q878R)b7 (human) [5]; 7 with a4b7(G629S) (human) [6].

B1: 17C8 (antibody, V domains shown)
VH: QVQLVESGGGLVKPGGSLRLSCAASGFTFSDYYMSWIRQAPGKGLEWLSYISNSGSAMYYADSVKGRFTISRDNARNSLYLQMNSLRAEDTAVYYCAREYSSGWFFFESWGQGTLVTVSS
VL: EIVMTQSPATLSVSPGERATLSCRASQSVSSNLVWYQQKPGQAPRLLIYGASTRATGIPARFSGSGSGTDFTLTISSLQSEDFAVYYCQQYDDWPPLTFGGGTTVEIK
notes: Fully human monoclonal from XenoMouse (human IgG2 or IgG4); kappa light chain; also called 17C8K; 17C8H
B1: in the assay with human alpha4beta7 [7], the IC50 (usually the point on the concentration scale where inhibition reaches its midpoint) was found to be 31.1 ng/mL. Also, the “HUT78 Adhesion IC50” value with human alpha4beta7 [8] came out at 6.8 ng/mL. Also, the Kd (usually the constant that tells how readily two partners part at equilibrium) with human alpha4beta7 [9] was determined as 29.4 pM. Further, the fluorescence staining intensity (geometric mean) was 49 in the assay with a4b7(R213S) (human) [10]; 74 in the assay with a4(V824A)b7 (human) [11]; 96 in the assay with a4b7(E97V) (human) [12]; 51 in the assay with a4(Q878R)b7 (human) [13]; 58 with a4b7(G629S) (human) [14]; 93 in the assay with human alpha4beta7 [17]. Moreover, the EC50 (usually the midpoint of the concentration-response curve) in the assay with human alpha4beta7 [15] was determined as 22.9 ng/mL. Besides, the Kd high in the assay with human alpha4beta7 [16] stood at 74.5 pM. The Kd low in the assay with human alpha4beta7 [18] is 12.1 pM.

B2: 2F12 (antibody, V domains shown)
VH: QVQLVQSGAEVKKPGASVKVSCKVSGYTVTDLSMHWVRQAPGKGLEWMGGFDPQDGETIYAQKFQGRVTMTEDTSTDTAYMELRSLRSEDTAVYYCTTESSSAWFDPWGQGTLVTVSS
VL: DIQMTQSPSSVFASVGDRVTITCRASQGISSWLAWYQQKPGKAPNLLIYGASSLQNGVPLRFSGSGSGTDFTLTISSLQPEDFATYYCQQANSFPWTFGQGTKVEIK
notes: Fully human monoclonal from XenoMouse (human IgG2 or IgG4); kappa light chain; also called 2F12K; 2F12H
In turn, B2 showed an IC50 with human alpha4beta7 [7] of 4.6 ng/mL. In the assay with human alpha4beta7 [8], the “HUT78 Adhesion IC50” value was 11.4 ng/mL. Further, in the assay with human alpha4beta7 [9], the Kd was determined as 4.56 pM. The fluorescence staining intensity (geometric mean) is 37 with a4b7(R213S) (human) [10]; 112 with a4(V824A)b7 (human) [11]; 134 in the assay with a4b7(E97V) (human) [12]; 73 with a4(Q878R)b7 (human) [13]; 80 with a4b7(G629S) (human) [14]; 129 with human alpha4beta7 [17]. Moreover, the midpoint of the response with human alpha4beta7 [15], the EC50, lay at 3.3 ng/mL. In the assay with human alpha4beta7 [16], this molecule displayed a Kd high of 11.1 pM. This molecule displayed a Kd low with human alpha4beta7 [18] of 1.94 pM.

B3: 18A11 (antibody, V domains shown)
VH: B2 VH with V29L, T30S, M34I, R84S, R87K, T97A, E99G, A103S
VL: B2 VL with F12S, N45K, S53N, Q55E, N56S, L60S, T85N
notes: Fully human monoclonal from XenoMouse (human IgG2 or IgG4); kappa light chain; also called 18A11K; 18A11H
The molecule B3 showed an IC50 in the assay with human alpha4beta7 [7] of 7.3 ng/mL. Further, the “HUT78 Adhesion IC50” value with human alpha4beta7 [8] is 7.4 ng/mL. The molecule further gave a dissociation constant (Kd) with human alpha4beta7 [9] of 0.9 pM. For the same molecule, the fluorescence staining intensity (geometric mean) with a4b7(R213S) (human) [10] was found to be 30; with a4(V824A)b7 (human) [11], 82; in the assay with a4b7(E97V) (human) [12], 105; with a4(Q878R)b7 (human) [13], 56; with a4b7(G629S) (human) [14], 63; with human alpha4beta7 [17], 92. This molecule registered an EC50 with human alpha4beta7 [15] of 4.7 ng/mL. In the assay with human alpha4beta7 [16], the Kd high was 2.29 pM. Also, the Kd low with human alpha4beta7 [18] was 0.23 pM.
